Test [1] deals with T1, shFcRn (human, UniProt P55899). As to the kind of experiment: SPR pH 7.4.
For test [2], the target named is T1, shFcRn. The test is described as follows: SPR pH 6.0.
The target of the next test is T2, rat FcRn (rat, UniProt P13599).
T2 chain 1: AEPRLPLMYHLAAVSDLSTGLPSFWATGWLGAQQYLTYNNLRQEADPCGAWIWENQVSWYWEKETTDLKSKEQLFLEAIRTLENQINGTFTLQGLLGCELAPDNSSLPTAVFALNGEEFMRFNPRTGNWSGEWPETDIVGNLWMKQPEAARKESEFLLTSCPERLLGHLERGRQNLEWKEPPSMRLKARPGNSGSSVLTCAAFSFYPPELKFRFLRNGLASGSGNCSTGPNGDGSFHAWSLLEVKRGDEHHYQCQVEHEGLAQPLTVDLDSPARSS
T2 chain 2: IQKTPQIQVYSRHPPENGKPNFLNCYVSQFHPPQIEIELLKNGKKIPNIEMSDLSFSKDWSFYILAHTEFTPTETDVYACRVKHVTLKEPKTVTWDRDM
As to the kind of experiment: FACS pH 7.4.

The target of the next test is T3, mouse FcRn (mouse, UniProt Q61559).
T3 chain 1: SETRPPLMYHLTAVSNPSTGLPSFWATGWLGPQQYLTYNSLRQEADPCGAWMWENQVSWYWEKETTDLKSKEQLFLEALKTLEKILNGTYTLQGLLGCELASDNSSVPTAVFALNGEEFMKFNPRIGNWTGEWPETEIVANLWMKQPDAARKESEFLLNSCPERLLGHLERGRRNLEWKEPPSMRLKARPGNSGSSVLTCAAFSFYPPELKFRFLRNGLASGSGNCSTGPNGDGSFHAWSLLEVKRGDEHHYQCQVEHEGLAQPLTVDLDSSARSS
T3 chain 2: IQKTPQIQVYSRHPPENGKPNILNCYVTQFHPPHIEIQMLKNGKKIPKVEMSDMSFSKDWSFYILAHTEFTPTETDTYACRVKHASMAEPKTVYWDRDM
As to the kind of experiment: FACS pH 6.0.

The target of test [3] is T1, shFcRn. The test is described as follows: SPR pH 7.4. This is another data set of the same source.
In test [4] the target is T1, shFcRn. The test is described as follows: SPR pH 6.0. The source holds these as a separate data set.
Test [5] has as its target T1, shFcRn. The test is described as follows: SPR pH 6.0. This is another data set of the same source.
Test [6] addresses T1, shFcRn. As to the kind of experiment: SPR pH 7.4. The source holds these as a separate data set.

T1 sequence (P55899 24-297, chain 1 of 2): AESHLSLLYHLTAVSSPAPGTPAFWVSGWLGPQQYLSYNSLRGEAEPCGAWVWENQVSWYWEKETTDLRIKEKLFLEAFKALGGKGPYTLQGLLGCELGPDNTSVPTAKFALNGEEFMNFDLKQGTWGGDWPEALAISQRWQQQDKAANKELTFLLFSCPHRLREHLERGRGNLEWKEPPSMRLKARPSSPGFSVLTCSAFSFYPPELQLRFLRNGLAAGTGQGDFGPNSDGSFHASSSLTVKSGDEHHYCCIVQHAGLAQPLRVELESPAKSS
T1 sequence (chain, as listed by the source, chain 2 of 2): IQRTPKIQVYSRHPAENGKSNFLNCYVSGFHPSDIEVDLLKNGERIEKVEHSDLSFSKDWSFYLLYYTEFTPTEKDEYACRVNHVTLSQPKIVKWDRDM

B1: HL161-11H (antibody)
chain 1: QMQLVESGGGLVQPGRSLRLSCAASGFTFSSYAMHWVRQAPGKGLEWVAVISYDGSNKYYADSVKGRFTISRDNSKNTLYLQMNSLRSEDTAVYYCSRGSGGRDAFDVWGQGTMITVSS
chain 2: DIQMTQSPSTLSASVGDRVTITCRASQSISSRLAWYQQKPGKAPKLLIYKASSLETGVPSRFSGSGSGTEFTLTISSLQPDDFATYYCQQTNSFPLTFGGGTKVEIK
As for B1, the figures for the Kd with shFcRn [1] and with shFcRn [2] were 0.9 nM and 0.35 nM, respectively. In addition, the binding result with rat FcRn and in the test with mouse FcRn was “no binding” each time.

B2: 11Hg (antibody)
chain 1: QVQLVESGGGVVQPGRSLRLSCAASGFTFSSYAMHWVRQAPGKGLEWVAVISYDGSNKYYADSVKGRFTISRDNSKNTLYLQMNSLRAEDTAVYYCARGSGGRDAFDVWGQGTMITVSS
chain 2: DIQMTQSPSTLSASVGDRVTITCRASQSISSRLAWYQQKPGKAPKLLIYKASSLETGVPSRFSGSGSGTEFTLTISSLQPDDFATYYCQQTNSFPLTFGGGTKVEIK
Regarding B2, the koff (in general, a measure of how fast the partners let go of each other) in the test with shFcRn [3] amounted to 0.000433 s⁻¹; with shFcRn [4] it was 0.000434 s⁻¹.

B3: HL161-11G (antibody)
chain 1: QMQLVESGGGVVQPGRSLRLSCVGSGFNFNSYGIHWVRQAPGKGLEWVGGIFYDGSQVKYADSVKGRVSISRDNSKNTAYLQMNSLRAEDTAVYYCARRNLLDYWGQGTVVTVSS
chain 2: NFMLTQPASVSGSPGQSITISCTGSSSDVGGYNYVSWYQQHPGKAPQLIIYDVTKRPSGVSNRFSGSKSGNSASLTISGLQAEDEADYYCSSYSSSTFYVFGTGTKVTVL
Regarding B3, the Kd – broadly, the constant that tells how readily two partners part at equilibrium – in the test with shFcRn [2] was determined as 0.16 nM. In other words, the sub-nanomolar range.

B4: HL161-10E (antibody)
chain 1: QVQLVESGGGLVQPGGSLRLSCAASGFRFSNFAMTWVRQAPGKGLEWVSTLSGSGGSIHHADSVKGRFTISRDNSKNTLYLQMNSLRAEDTAVYYCAKGPLRGQPAYLDPWGQGTLVTVSS
chain 2: SYELTQPLSVSMSPGQTARITCSGDALSKQYASWYQLKPGQAPVVVMYKDTERPSGIPDRFSGSSSGTTVTLTISGVQAEDEADYYCQSITDKSGTDVIFGGGTKLTVL
As to B4, the Kd was 26 nM in the test with shFcRn [1] and 3.8 nM with shFcRn [2].

B5: A12-H04 (antibody)
chain 1: EVQLVESGGGLVQPGRSLRLSCAASGFTFDEYGMHWVRQAPGKGLEWVSGVSWNSGSIAYADSVRGRFTISRDNAKNSLYLQMNSLRAEDTALYYCAKGRLLDVWGQGTTVTVSS
chain 2: QSALTQPASVSGSPGQSITISCTGSSSDVGGYNYVSWYQQHPGKAPKLMIYDVTKRPSGVSNRFSGSKSGNTASLTISGLQAEDEADYYGAYSNTNFYVFGTGTKVTVL
With B5, the koff was found to be 0.00022 s⁻¹ with shFcRn [5] and 0.00235 s⁻¹ with shFcRn [6].

B6: A12-E04 (antibody)
chain 1: EVQLVESGGGLVQPGRSLRLSCAASGFTFDEYGMHWVRQAPGKGLEWVSGVSWNSGSIAYADSVRGRFTISRDNAKNSLYLQMNSLRAEDTALYYCAKGRLFDVWGQGTTVTVSS
chain 2: QSALTQPASVSGSPGQSITISCTGSSSDVGGYNYVSWYQQHPGKAPKLMIYDVTKRPSGVSNRFSGSKSGNTASLTISGLQAEDEADYYGSYSNSNFYVFGTGTKVTVL
Turning to B6, the koff was determined as 0.000132 s⁻¹ with shFcRn [5] and 0.00137 s⁻¹ with shFcRn [6].

B7: 1Ag (antibody)
chain 1: EVQLVESGGGLVQPGRSLRLSCAASGFTFDEYGMHWVRQAPGKGLEWVSGVSWNSGSIAYADSVRGRFTISRDNAKNSLYLQMNSLRAEDTALYYCAKGRSMDVWGQGTTVTVSS
chain 2: QSALTQPASVSGSPGQSITISCTGSSSDVGGYNYVSWYQQHPGKAPKLMIYDVTKRPSGVSNRFSGSKSGNTASLTISGLQAEDEADYYCSSYSSSTFYVFGTGTKVTVL
On to B7, for which the koff was 0.000222 s⁻¹ with shFcRn [5] and 0.000212 s⁻¹ with shFcRn [6].

B8: A12-E01 (antibody)
chain 1: EVQLVESGGGLVQPGRSLRLSCAASGFTFDEYGMHWVRQAPGKGLEWVSGVSWNSGSIAYADSVRGRFTISRDNAKNSLYLQMNSLRAEDTALYYCAKSRSMDVWGQGTTVTVSS
chain 2: QSALTQPASVSGSPGQSITISCTGSSSDVGGYNYVSWYQQHPGKAPKLMIYDVTKRPSGVSNRFSGSKSGNTASLTISGLQAEDEADYYGSYSNNNFYVFGTGTKVTVL
Take B8: the koff came out at 5.99e-05 s⁻¹ with shFcRn [5] and 0.00115 s⁻¹ with shFcRn [6].

B9: A11-C07 (antibody)
chain 1: EVQLVESGGGLVQPGRSLRLSCAASGFTFDEYGMHWVRQAPGKGLEWVSGVSWNSGSIAYADSVRGRFTISRDNAKNSLYLQMNSLRAEDTALYYCAKGRYSDVWGQGTTVTVSS
chain 2: QSALTQPASVSGSPGQSITISCTGSSSDVGGYNYVSWYQQHPGKAPKLMIYDVTKRPSGVSNRFSGSKSGNTASLTISGLQAEDEADYYASYSSNTFYVFGTGTKVTVL
In the case of B9, the koff in the test with shFcRn [5] worked out at 0.000393 s⁻¹; with shFcRn [6], 0.00248 s⁻¹.

B10: A11-G06 (antibody)
chain 1: EVQLVESGGGLVQPGRSLRLSCAASGFTFDEYGMHWVRQAPGKGLEWVSGVSWNSGSIAYADSVRGRFTISRDNAKNSLYLQMNSLRAEDTALYYCAKGRLMDVWGQGTTVTVSS
chain 2: QSALTQPASVSGSPGQSITISCTGSSSDVGGYNYVSWYQQHPGKAPKLMIYDVTKRPSGVSNRFSGSKSGNTASLTISGLQAEDEADYYGSYNNNTFYVFGTGTKVTVL
Consider B10, for which the koff was 0.000225 s⁻¹ with shFcRn [5] and 0.000496 s⁻¹ with shFcRn [6].

B11: A12-C09 (antibody)
chain 1: EVQLVESGGGLVQPGRSLRLSCAASGFTFDEYGMHWVRQAPGKGLEWVSGVSWNSGSIAYADSVRGRFTISRDNAKNSLYLQMNSLRAEDTALYYCAKGRTMDVWGQGTTVTVSS
chain 2: QSALTQPASVSGSPGQSITISCTGSSSDVGGYNYVSWYQQHPGKAPKLMIYDVTKRPSGVSNRFSGSKSGNTASLTISGLQAEDEADYYGSYSSNTFYVFGTGTKVTVL
Take B11: the koff was 0.000177 s⁻¹ with shFcRn [5] and 0.000909 s⁻¹ with shFcRn [6].

B12: A12-E05 (antibody)
chain 1: EVQLVESGGGLVQPGRSLRLSCAASGFTFDEYGMHWVRQAPGKGLEWVSGVSWNSGSIAYADSVRGRFTISRDNAKNSLYLQMNSLRAEDTALYYCAKGRILDVWGQGTTVTVSS
chain 2: QSALTQPASVSGSPGQSITISCTGSSSDVGGYNYVSWYQQHPGKAPKLMIYDVTKRPSGVSNRFSGSKSGNTASLTISGLQAEDEADYYGSYNNSTFYVFGTGTKVTVL
Consider B12, for which the koff with shFcRn [5] came to 0.000216 s⁻¹; with shFcRn [6], 0.00222 s⁻¹.

B13: HL161-1A (antibody)
chain 1: QVQLVQSGGGLVQPGRSLRLSCAASGFSFGEYGMHWVRQAPGKGLEWVSGVSWNSGSIAYADSVRGRFTISRDNSKNSLYLQMNSLRAEDTAVYYCARGRSMDVWGQGTTVTVSS
chain 2: NFMLTQPASVSGSPGQTITISCTGSSSDVGGYNYVSWYQQHPGKAPQLIIYDVTKRPSGVSNRFSGSKSGNSASLTISGLQAEDEADYYCSSYSSSTFYVFGTGTKVTVL
As for B13, the Kd with shFcRn [2] was 0.8 nM.

B14: A12-F02 (antibody)
chain 1: EVQLVESGGGLVQPGRSLRLSCAASGFTFDEYGMHWVRQAPGKGLEWVSGVSWNSGSIAYADSVRGRFTISRDNAKNSLYLQMNSLRAEDTALYYCAKGRYLDVWGQGTTVTVSS
chain 2: QSALTQPASVSGSPGQSITISCTGSSSDVGGYNYVSWYQQHPGKAPKLMIYDVTKRPSGVSNRFSGSKSGNTASLTISGLQAEDEADYYGSYDSNTFYVFGTGTKVTVL
Take B14: the koff with shFcRn [5] was 0.000305 s⁻¹; with shFcRn [6] it was 0.000225 s⁻¹.

B15: HL161-6C (antibody)
chain 1: QVQLVESGAEVKKPGASVKVSCKASGYTFTSYYMHWVRQAPGQGLEWMGIINPSGGSTSYAQKFQGRVTMTRDTSTSTVYMELSSLRSEDTAVYYCARGGGAFDIWGQGTMVTVSS
chain 2: DIQMTQSPSSVSASVGDRVTITCRASQGISNWVAWYQQKPGKAPKLLIYAASSLQSGVPSRFSGSGSGTDFTLTISSLQPEDFAIYYCQQGHSFPYTFGQGTKVEIK
With B15, the Kd was found to be 6.6 nM with shFcRn [1] and 1.9 nM with shFcRn [2].

For the origin of these results see EP3010938.
